Experimental data reported in US20230295310A1 (ABCELLERA BIOLOGICS, published 2023).
Changes are numbered by the printed parent chain. One block for each binder: values may come before it.

Key:
[1] = molecular target: T1, cynomolgus monkey CD3 expressed on primary T cells (cynomolgus monkey, UniProt Q95LI5 22-198; Q95LI8 22-171; Q95LI7 23-181); assay: flow cytometry, 25 nM, cyno primary T cells
T1 construct: whole, on cells; CD3 complex on purified cynomolgus monkey T cells; also called cyno CD3
T1 sequence (Q95LI5 22-198, chain 1 of 3): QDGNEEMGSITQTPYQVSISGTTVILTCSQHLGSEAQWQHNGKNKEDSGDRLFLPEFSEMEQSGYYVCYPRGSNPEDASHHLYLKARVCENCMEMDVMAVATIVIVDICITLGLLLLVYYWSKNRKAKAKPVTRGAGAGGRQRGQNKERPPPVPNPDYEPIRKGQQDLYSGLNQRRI
T1 sequence (Q95LI8 22-171, chain 2 of 3): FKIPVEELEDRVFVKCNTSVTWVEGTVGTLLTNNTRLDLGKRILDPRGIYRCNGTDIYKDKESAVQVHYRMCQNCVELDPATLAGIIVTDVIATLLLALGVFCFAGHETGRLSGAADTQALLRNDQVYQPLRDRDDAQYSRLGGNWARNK
T1 sequence (Q95LI7 23-181, chain 3 of 3): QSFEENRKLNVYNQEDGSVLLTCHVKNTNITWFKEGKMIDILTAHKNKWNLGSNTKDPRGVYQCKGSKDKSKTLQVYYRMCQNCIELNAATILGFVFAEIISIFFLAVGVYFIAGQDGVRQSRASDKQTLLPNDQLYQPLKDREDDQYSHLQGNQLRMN
Method: Purified antibodies were confirmed to bind CD3 expressed on cells using the CytoFLEX S or LX flow cytometers (Beckman Coulter). Antibodies were diluted to 25 nM in FACS buffer (PBS+2% FBS) and were incubated with CD3-expressing cells for 30 minutes at 4° C. […] The median fluorescence intensity of the binding signal for each antibody was normalized to the isotype control to obtain a fold over isotype value. An antibody with a fold over isotype (FOI) of ≥10 was considered to be positive for binding.

[2] = molecular target: T2, human CD3 expressed on cells (human, UniProt P07766 23-207; P04234 22-171; P09693 23-182); assay: flow cytometry, 25 nM
T2 construct: whole, on cells; CD3 complex on Jurkat cells and on human primary T cells
T2 sequence (P07766 23-207, chain 1 of 3): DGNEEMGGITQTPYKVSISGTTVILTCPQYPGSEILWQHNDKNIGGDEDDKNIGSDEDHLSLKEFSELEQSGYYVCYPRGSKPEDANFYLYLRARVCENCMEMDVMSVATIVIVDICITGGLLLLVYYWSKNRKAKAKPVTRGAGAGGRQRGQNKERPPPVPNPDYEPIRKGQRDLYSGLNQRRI
T2 sequence (P04234 22-171, chain 2 of 3): as the sequence (Q95LI8 22-171, chain 2 of 3) above, with V5I, K15N, V20I, T32S, N33D, N34I, A64T, N74S, L83V, R141H counted along it
T2 sequence (P09693 23-182, chain 3 of 3): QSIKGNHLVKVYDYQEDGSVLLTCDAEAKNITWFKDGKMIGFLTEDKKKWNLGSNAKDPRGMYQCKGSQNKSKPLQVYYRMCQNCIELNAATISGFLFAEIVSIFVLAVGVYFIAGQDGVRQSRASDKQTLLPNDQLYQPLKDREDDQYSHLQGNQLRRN
Summary of the method: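 Binding reported as fold over isotype: median fluorescence intensity divided by isotype control, with ≥10 scored positive. Cells were exposed to 25 nM antibody in PBS/2% FBS, 30 min, 4 °C, before flow cytometric read-out.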

binding result [1]: no binding (tested: FOI >=10 = positive) | Human primary T Cell Binding (FOI) [2]: 210 FOI | Jurkat Cell Binding (FOI) [2]: 186 FOI
B1: mAb 106 (antibody, V domains shown)
VH: QVQLVESGGGVVQPGRSLRLSCAASGFTFRSYGMHWVRQAPGKGLEWVAIIWYNGNKKDYVDSVKGRFTISRDNSKNTLYLQMNSLRAEDTALYYCARGPGYNWFDPWGQGTLVTVSS
VL: DIQMTQSPPSLSASVGDRVTITCRASQRISSYLNWYQQKPGKAPKLLIYAASSLQSGVPSRFSGSGSGTDFTLTISSLQPEDFATYYCQQSDSFPLTFGGGTKVEII

binding result [1]: no binding (tested: FOI >=10 = positive) | Human primary T Cell Binding (FOI) [2]: 214 FOI | Jurkat Cell Binding (FOI) [2]: 197 FOI
B2: mAb 110 (antibody, V domains shown)
VH: B1 VH with T78M
VL: B1 VL with K39R, S91T

binding result [1]: no binding (tested: FOI >=10 = positive) | Human primary T Cell Binding (FOI) [2]: 168 FOI | Jurkat Cell Binding (FOI) [2]: 160 FOI
B3: mAb 111 (antibody, V domains shown)
VH: EVQLVESGGVLVKTGGSLRLSCVASGFSFKKAWMNWVRQAPGKGLEWVGRIKRNSDGGAADYAAPVKDRFTLSRDDSKNTLYLQMNSLKTEDTAVYYCTTLDSSSWYVGYYYMDVWGKGTTVTVSS
VL: DIHMTQSPSSVSASLGDRVTFTCRASQNINNWLAWYQQKPGKAPKLLIYTASSLQSGVPSRFSGSGSGTDFTLTISSLQPDDFATYYCQQAHSLPITFGQGTRLGIK

binding result [1]: no binding (tested: FOI >=10 = positive) | Human primary T Cell Binding (FOI) [2]: 164 FOI | Jurkat Cell Binding (FOI) [2]: 157 FOI
B4: mAb 132 (antibody, V domains shown)
VH: B3 VH with E1D, V10G, L11T, R53K, A59T, D68G, L72I, N79K, K89Q
VL: DIQMTQSPSSVSASVGDRVIITCRASQDINNWLAWYQQKPGIAPKLLIYTASSLQSGVPSRFSGSGSVSDFTLTIGSLQPEDFATYYCQQAHSLPITFGQGTRLEIK

binding result [1]: no binding (tested: FOI >=10 = positive) | Human primary T Cell Binding (FOI) [2]: 274 FOI | Jurkat Cell Binding (FOI) [2]: 163 FOI
B5: mAb 155 (antibody, V domains shown)
VH: B3 VH with V10G, S55T, A59T, D68G, N79K, Y82F, W106Y
VL: B4 VL with I42K, V68G, S69T, T97S, E105D

binding result [1]: no binding (tested: FOI >=10 = positive) | Human primary T Cell Binding (FOI) [2]: 237 FOI | Jurkat Cell Binding (FOI) [2]: 137 FOI
B6: mAb 164 (antibody, V domains shown)
VH: B3 VH with V10G, S55T, A59T, D68G, N79K, Y82F, W106Y
VL: B4 VL with I20T, N30K, I42K, V68G, S69T

binding result [1]: no binding (tested: FOI >=10 = positive) | Human primary T Cell Binding (FOI) [2]: 174 FOI | Jurkat Cell Binding (FOI) [2]: 159 FOI
B7: mAb 116 (antibody, V domains shown)
VH: B3 VH with V10G, A59T, A60T, D68G
VL: B4 VL with S9F, I20T, I42K, L46I, V68G, S69T, G76S

binding result [1]: no binding (tested: FOI >=10 = positive) | Human primary T Cell Binding (FOI) [2]: 179 FOI | Jurkat Cell Binding (FOI) [2]: 167 FOI
B8: mAb 114 (antibody, V domains shown)
VH: B3 VH with V10G, S55T, A59P, D68G, N79K
VL: B4 VL with Q37L, K39R, I42K, T50A, V68G, S69T, K107Q

binding result [1]: no binding (tested: FOI >=10 = positive) | Human primary T Cell Binding (FOI) [2]: 265 FOI | Jurkat Cell Binding (FOI) [2]: 163 FOI
B9: mAb 157 (antibody, V domains shown)
VH: B3 VH with V10G, N54T, S55A, A60T, D68G
VL: B3 VL with S7A, L15V, N28D, D81E

binding result [1]: no binding (tested: FOI >=10 = positive) | Human primary T Cell Binding (FOI) [2]: 167 FOI | Jurkat Cell Binding (FOI) [2]: 168 FOI
B10: mAb 120 (antibody, V domains shown)
VH: B3 VH with V10G, S55T, A59T, D68G, N79K, Y82F, W106Y
VL: B4 VL with I20T, I42K, V68G, S69T

binding result [1]: no binding (tested: FOI >=10 = positive) | Human primary T Cell Binding (FOI) [2]: 171 FOI | Jurkat Cell Binding (FOI) [2]: 159 FOI
B11: mAb 123 (antibody, V domains shown)
VH: DVQLVESGGGTVKTGGSLRLSCVASGFSFKKAWMNWVRQAPGKGLEWVGRIKKNSDDGTADYAAPVKGRFTISRDDSKRTLFLQMNSLQTEDTAVYYCTTLDSSSWFVGYYYMDVWGKGTTVTVSS
VL: B4 VL with I42K, G76D

binding result [1]: no binding (tested: FOI >=10 = positive) | Human primary T Cell Binding (FOI) [2]: 174 FOI | Jurkat Cell Binding (FOI) [2]: 157 FOI
B12: mAb 115 (antibody, V domains shown)
VH: B3 VH with V10G, L18H, A59T, A60T, D68G, T71I
VL: B4 VL with I20T, I42K, L46I, S53N, V68G, S69T, G76S, Y87F, S93G

binding result [1]: no binding (tested: FOI >=10 = positive) | Human primary T Cell Binding (FOI) [2]: 174 FOI | Jurkat Cell Binding (FOI) [2]: 199 FOI
B13: mAb 122 (antibody, V domains shown)
VH: B3 VH with V10G, S55T, A59T, D68G, N79K, W106R
VL: B4 VL with I42K, A43V, V68G, S69T

binding result [1]: no binding (tested: FOI >=10 = positive) | Human primary T Cell Binding (FOI) [2]: 169 FOI | Jurkat Cell Binding (FOI) [2]: 161 FOI
B14: mAb 133 (antibody, V domains shown)
VH: B3 VH with V10G, N35S, S55T, A59T, D68G, N79K, Y82F, T93S, T99V, W106Y
VL: B4 VL with I20S, I42K, V68G, S69T

binding result [1]: no binding (tested: FOI >=10 = positive) | Human primary T Cell Binding (FOI) [2]: 171 FOI | Jurkat Cell Binding (FOI) [2]: 155 FOI
B15: mAb 131 (antibody, V domains shown)
VH: B3 VH with V10G, L20I, S55T, A59T, A60I, D68G, T71S, Y82F, Y97F, W106Y
VL: B3 VL with L15V, F21I, N28D, D81E, Y87F

binding result [1]: no binding (tested: FOI >=10 = positive) | Human primary T Cell Binding (FOI) [2]: 174 FOI | Jurkat Cell Binding (FOI) [2]: 158 FOI
B16: mAb 112 (antibody, V domains shown)
VH: B3 VH with V10G, L18H, A59T, A60T, D68G, T71I
VL: B4 VL with I20T, I42K, L46I, S53N, V68G, S69T, G76S, Y87F

binding result [1]: no binding (tested: FOI >=10 = positive) | Human primary T Cell Binding (FOI) [2]: 243 FOI | Jurkat Cell Binding (FOI) [2]: 171 FOI
B17: mAb 156 (antibody, V domains shown)
VH: B3 VH with V10G, S55T, A59T, D68G, N79K, Y82F, W106Y
VL: B4 VL with P40A, I42K, V68G, S69T

binding result [1]: no binding (tested: FOI >=10 = positive) | Human primary T Cell Binding (FOI) [2]: 180 FOI | Jurkat Cell Binding (FOI) [2]: 185 FOI
B18: mAb 125 (antibody, V domains shown)
VH: B3 VH with V10G, S55T, A59T, D68G, N79K, W106R
VL: B4 VL with I42K, A43V, V68G, S69T, S77T, E105D

binding result [1]: no binding (tested: FOI >=10 = positive) | Human primary T Cell Binding (FOI) [2]: 170 FOI | Jurkat Cell Binding (FOI) [2]: 155 FOI
B19: mAb 117 (antibody, V domains shown)
VH: B3 VH with V10G, S55T, A59T, A60T, D68G, W106L
VL: B4 VL with I20T, I42K, V68G, S69T, G76S

binding result [1]: no binding (tested: FOI >=10 = positive) | Human primary T Cell Binding (FOI) [2]: 173 FOI | Jurkat Cell Binding (FOI) [2]: 157 FOI
B20: mAb 113 (antibody, V domains shown)
VH: B3 VH with V10G, S55T, A59T, A60T, D68G
VL: B4 VL with I20T, I42K, L46I, V68G, S69T, G76S

binding result [1]: no binding (tested: FOI >=10 = positive) | Human primary T Cell Binding (FOI) [2]: 278 FOI | Jurkat Cell Binding (FOI) [2]: 118 FOI
B21: mAb 163 (antibody, V domains shown)
VH: B3 VH with V10G, A40V, S55T, A59T, D68G, N79K, Y82F, W106Y
VL: B4 VL with I42K, V68G, S69T

binding result [1]: no binding (tested: FOI >=10 = positive) | Human primary T Cell Binding (FOI) [2]: 174 FOI | Jurkat Cell Binding (FOI) [2]: 170 FOI
B22: mAb 94 (antibody, V domains shown)
VH: QVHLVESGGGVVQPGRSLRLSCSASGFTFSGYGMHWVRQAPGKGLEWVALIYFDGRNKYYADSVKGRFTISRDNSKNTLYLQMNSLRAEDTAVYYCARGGGYNWFDPWGQGTLVTVSS
VL: DIQMTQSPSSLSASVGDRVTITCRASQSISNYLNWYQQKPGKAPKLLIYLASSLQSGVPSRFSGSGSGTDFTLTINSLQPEDFASYYCQLSYSSPFTFGPGTKVDVN

binding result [1]: no binding (tested: FOI >=10 = positive) | Human primary T Cell Binding (FOI) [2]: 174 FOI | Jurkat Cell Binding (FOI) [2]: 181 FOI
B23: mAb 98 (antibody, V domains shown)
VH: B22 VH with G10D
VL: B22 VL with S30N, N76S, F83L, S85T, N107K

binding result [1]: no binding (tested: FOI >=10 = positive) | Human primary T Cell Binding (FOI) [2]: 189 FOI | Jurkat Cell Binding (FOI) [2]: 174 FOI
B24: mAb 96 (antibody, V domains shown)
VH: B22 VH with V2A, A49S
VL: B22 VL with S30N, N34S, S53N, S65N, N76S, S85T, S93R, N107K

binding result [1]: no binding (tested: FOI >=10 = positive) | Human primary T Cell Binding (FOI) [2]: 98.9 FOI | Jurkat Cell Binding (FOI) [2]: 101 FOI
B25: mAb 102 (antibody, V domains shown)
VH: QVQLVESGGGVVQPGRSLRLSCAASGFSFRSYGMHWVRQAPGKGLEWVSVISYDGGNKYYADSVKGRFTISRDNSKNTLFLQMKSLRAEDTALYYCAKGGGTYWRGLFEYWGQGTLVTVSS
VL: DIQLTQSPSFLSASVGDRVTITCRASQGISSYLAWYQKKPGKAPKLLIYAASTLHSGVPSRFSGGGSGTAFTLTISSLQPEDFATYYCQQLNNYPFTFGPGTKVDIK
